Measurements as given in PMC7042235.

Biological target: microtubules (polymerized porcine tubulin) (porcine) (UniProt P02550)
Experiment: co-sedimentation; purified MTBDs (1-32 uM) mixed with 5 uM paclitaxel-stabilised porcine MTs; 100 mM PIPES pH 6.8, 50 mM NaCl, 2 mM MgCl2, 1 mM EGTA; 210,000 x g, 25 °C, 10 min; pellets on SDS-PAGE, densitometry, one-site curve fitting

## MTBD-WT (microtubule-binding domain of yeast cytoplasmic dynein, K3096-E3232) (from UniProt P36022 3096-3232) (domain or fragment)
  Kd: 6.7 µM
